Experiment [1] has as its target VH2VL1-CD8ATD-CD137CSD-CD3zSSD fusion.
In experiment [2] the target is VL1VH3-CD8ATD-CD137CSD-CD3zSSD fusion.
For experiment [3], the target named is VH1VL1-CD8ATD-CD137CSD-CD3zSSD fusion.
Experiment [4] concerns the target VH2VL1-CD8ATD-CD137CSD-CD3zSSD fusion. The source holds these as a separate data set.
For experiment [5], the target named is VL1VH3-CD8ATD-CD137CSD-CD3zSSD fusion. The source holds these as a separate data set.
Experiment [6] addresses VH3VL1-CD8ATD-CD137CSD-CD3zSSD fusion.
Experiment [7] concerns the target VH1VL1-CD8ATD-CD137CSD-CD3zSSD fusion. This is another data set of the same source.
Experiment [8] deals with VH2VL1-CD8ATD-CD137CSD-CD3zSSD fusion. This is another data set of the same source.
The target in experiment [9] is VL1VH3-CD8ATD-CD137CSD-CD3zSSD fusion. This is another data set of the same source.
Experiment [10] concerns the target VH3VL1-CD8ATD-CD137CSD-CD3zSSD fusion. This is another data set of the same source.

This is an account of results in patent US20230322950A1.

Chain of VL1VH3-CD8ATD-CD137CSD-CD3zSSD fusion (chain, as listed by the source): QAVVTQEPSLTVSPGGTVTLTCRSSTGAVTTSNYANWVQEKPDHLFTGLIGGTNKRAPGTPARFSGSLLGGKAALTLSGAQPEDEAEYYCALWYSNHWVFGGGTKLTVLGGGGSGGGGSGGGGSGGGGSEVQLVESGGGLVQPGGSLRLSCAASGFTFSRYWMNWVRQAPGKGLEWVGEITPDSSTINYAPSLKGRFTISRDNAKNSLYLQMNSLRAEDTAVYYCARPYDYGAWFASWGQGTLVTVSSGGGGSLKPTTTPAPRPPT
Chain of VH2VL1-CD8ATD-CD137CSD-CD3zSSD fusion (chain, as listed by the source): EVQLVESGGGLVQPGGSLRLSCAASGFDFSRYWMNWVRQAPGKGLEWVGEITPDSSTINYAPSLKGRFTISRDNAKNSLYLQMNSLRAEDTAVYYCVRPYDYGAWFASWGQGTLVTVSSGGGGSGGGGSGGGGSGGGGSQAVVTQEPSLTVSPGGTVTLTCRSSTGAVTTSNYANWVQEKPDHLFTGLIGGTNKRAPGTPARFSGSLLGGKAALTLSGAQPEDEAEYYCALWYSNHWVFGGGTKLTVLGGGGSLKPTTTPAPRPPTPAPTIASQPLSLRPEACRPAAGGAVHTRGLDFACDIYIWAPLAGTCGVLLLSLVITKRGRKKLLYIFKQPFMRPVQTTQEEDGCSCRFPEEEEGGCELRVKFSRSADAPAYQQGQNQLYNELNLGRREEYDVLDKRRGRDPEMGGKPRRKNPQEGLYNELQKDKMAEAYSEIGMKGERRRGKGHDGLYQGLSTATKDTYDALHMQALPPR
Chain of VH1VL1-CD8ATD-CD137CSD-CD3zSSD fusion (chain, as listed by the source): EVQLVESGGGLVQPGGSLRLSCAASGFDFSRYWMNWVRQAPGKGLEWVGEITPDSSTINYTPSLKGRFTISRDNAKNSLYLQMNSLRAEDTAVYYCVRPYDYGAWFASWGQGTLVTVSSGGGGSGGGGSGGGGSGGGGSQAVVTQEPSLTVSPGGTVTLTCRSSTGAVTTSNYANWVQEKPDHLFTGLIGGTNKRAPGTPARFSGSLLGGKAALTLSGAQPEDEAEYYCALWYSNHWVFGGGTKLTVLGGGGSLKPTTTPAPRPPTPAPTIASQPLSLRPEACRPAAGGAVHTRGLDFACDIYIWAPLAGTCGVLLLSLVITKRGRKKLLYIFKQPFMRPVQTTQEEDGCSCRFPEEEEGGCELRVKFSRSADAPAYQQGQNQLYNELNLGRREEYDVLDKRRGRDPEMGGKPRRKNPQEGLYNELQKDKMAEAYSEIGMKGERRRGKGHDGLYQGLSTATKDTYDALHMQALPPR
Chain of VH3VL1-CD8ATD-CD137CSD-CD3zSSD fusion (chain, as listed by the source): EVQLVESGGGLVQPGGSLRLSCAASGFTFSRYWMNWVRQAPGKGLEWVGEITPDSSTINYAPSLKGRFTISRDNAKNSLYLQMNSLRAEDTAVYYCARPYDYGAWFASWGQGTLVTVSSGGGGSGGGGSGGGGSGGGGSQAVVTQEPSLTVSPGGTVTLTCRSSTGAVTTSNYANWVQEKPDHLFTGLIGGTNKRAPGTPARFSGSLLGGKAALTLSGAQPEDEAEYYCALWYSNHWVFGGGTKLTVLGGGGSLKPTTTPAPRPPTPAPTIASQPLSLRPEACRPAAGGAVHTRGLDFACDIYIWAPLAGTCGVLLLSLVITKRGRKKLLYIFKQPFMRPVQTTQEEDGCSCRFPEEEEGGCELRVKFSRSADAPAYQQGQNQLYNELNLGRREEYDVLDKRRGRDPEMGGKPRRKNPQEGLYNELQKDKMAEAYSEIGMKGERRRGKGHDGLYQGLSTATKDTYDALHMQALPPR

Take DP47 P329G LALA (antibody): the EC50 printed in the drawn table (row 'VH2 x VL1') for the Jurkat NFAT reporter assay with WSUDLCL2 cells and untargeted DP47 P329G LALA; the curve stays at background (about 60 to 90 RLU/s) in experiment [1] was found to be 293 pM. The same substance returned an EC50 printed in the drawn table (row 'VL1 x VH 3') for the Jurkat NFAT reporter assay with WSUDLCL2 cells and untargeted DP47 P329G LALA; the curve stays near background (about 60 to 110 RLU/s) in experiment [2] of 7420 pM.
On to “anti-CD20 (GA101) D246A P329G IgG1 (antibody)”, for which, in experiment [3], the EC50 of Jurkat NFAT luciferase reporter activation (RLU/s), WSUDLCL2 target cells 5:1; drawn table, row 'VH1 x VL1'; x axis 'GA101 D246A P329G [nM]' was 0.00814 nM. In experiment [4], this substance displayed an EC50 of Jurkat NFAT luciferase reporter activation (RLU/s), WSUDLCL2 target cells 5:1; drawn table, row 'VH2 x VL1'; x axis 'GA101 D246A P329G [nM]' of 0.0104 nM. In experiment [5], this substance gave an EC50 of Jurkat NFAT luciferase reporter activation (RLU/s), WSUDLCL2 target cells 5:1; drawn table, row 'VL1 x VH 3'; x axis 'GA101 D246A P329G [nM]' of 0.00619 nM. In experiment [6], this substance displayed an EC50 of Jurkat NFAT luciferase reporter activation (RLU/s), WSUDLCL2 target cells 5:1; drawn table, row 'VH3 x VL1'; x axis 'GA101 D246A P329G [nM]' of 0.00582 nM.
The substance “anti-CD20 (GA101) P329G LALA IgG1 (antibody)” had an EC50 of Jurkat NFAT luciferase reporter activation (RLU/s), WSUDLCL2 target cells 5:1; drawn table, row 'VH1 x VL1' in [7] of 8.1 pM. Moreover, in experiment [8], the EC50 of Jurkat NFAT luciferase reporter activation (RLU/s), WSUDLCL2 target cells 5:1; drawn table, row 'VH2 x VL1' stood at 6.93 pM. For the same substance, in experiment [9], the EC50 of Jurkat NFAT luciferase reporter activation (RLU/s), WSUDLCL2 target cells 5:1; drawn table, row 'VL1 x VH 3' stood at 6.58 pM. In experiment [10], this substance had an EC50 of Jurkat NFAT luciferase reporter activation (RLU/s), WSUDLCL2 target cells 5:1; drawn table, row 'VH3 x VL1' of 7.57 pM.
